For this test, the target named is T1, E. coli iron ferrichrome transporter FhuA (E. coli, UniProt P06971 34-747).
T1 construct: FhuA, outer-membrane iron-ferrichrome transporter of E. coli; His-tag inserted in extracellular loop L5 after residue 405 (9 residues, not counted in the numbering); residues 1-17 disordered in the map; Lipopolysaccharide copurifies with FhuA; Purification is as in Flayhan et al, 2012; source: E. coli AW740, plasmid-encoded, grown with 100 µM dipyridine, purified; not shown: His6, internal (after …)
T1 sequence (looked up): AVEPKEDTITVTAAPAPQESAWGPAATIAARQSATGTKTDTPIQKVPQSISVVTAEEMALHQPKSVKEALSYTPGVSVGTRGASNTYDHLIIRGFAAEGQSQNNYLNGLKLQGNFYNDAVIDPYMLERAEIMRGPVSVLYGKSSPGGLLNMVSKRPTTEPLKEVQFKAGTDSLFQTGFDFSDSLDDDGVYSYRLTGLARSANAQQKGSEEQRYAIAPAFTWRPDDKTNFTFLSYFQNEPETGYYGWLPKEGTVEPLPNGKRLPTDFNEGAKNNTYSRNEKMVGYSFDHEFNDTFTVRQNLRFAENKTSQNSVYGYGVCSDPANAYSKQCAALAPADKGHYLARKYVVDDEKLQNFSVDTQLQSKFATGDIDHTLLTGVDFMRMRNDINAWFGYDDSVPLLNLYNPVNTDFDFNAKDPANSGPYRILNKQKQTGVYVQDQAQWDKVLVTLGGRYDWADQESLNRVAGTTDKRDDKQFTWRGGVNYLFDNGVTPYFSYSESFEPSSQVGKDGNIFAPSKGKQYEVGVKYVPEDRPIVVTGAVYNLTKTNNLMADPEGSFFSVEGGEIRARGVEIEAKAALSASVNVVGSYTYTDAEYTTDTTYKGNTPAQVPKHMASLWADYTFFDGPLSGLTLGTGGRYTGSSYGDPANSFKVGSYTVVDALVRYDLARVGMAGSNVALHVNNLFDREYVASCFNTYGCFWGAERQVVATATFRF
As to the kind of experiment: cryo-EM structure; FhuA-RBPpb5 complex formed from equimolar amounts of the two purified proteins; 20 mM Tris, 1.6% C10DAO, 4.3 mg/mL; 2.6 Å average resolution. Conditions: both partners purified.

B1: bacteriophage T5 Receptor Binding Protein pb5 (natural protein)
chain: MSFFAGKLNNKSILSLRRGSGGDTNQHINPDSQTIFHSDMSHVIITETHSTGLRLDQGAGDYYWSEMPSRVTQLHNNDPNRVVLTEIEFSDGSRHMLSGMSMGVGAKAYGIINPQIMSQGGLKTQITASADLSLDVGYFNTGTSGTIPQKLRDGTGCQHMFGAFSGRRGFASSAMYLGGAALYKSAWSGSGYVVADAGTLTIPSDYVRHPGARNFGFNAIYVRGRSCNRVLYGMEGPNYTTGGAVQGASSSGALNFTYNPSNPESPKYSVGFARADPTNYAYWESMGDPNDSANGPIGIYSEHLGIYPSKITWYVTNLVYNGSGYNIDGGLFNGNDIKLSPREFIIKGVNVNNTSWKFINFIEKNFNVGNRADFRDVGCNLSKDSPSTGISGIATFGLPTTESNNAPSIKGGNVGGLHANVVSIYNFLPSASWYVSSNPPKIGNNYGDVWSENLLPLRLLGGSGSTILSGNIVFQGNGSVHVGTVGLDLNSSRNGAIVCTMEFIDDTWLSAGGIGCFNPTEMLSQGAEYGDSRFRIGGNTINKKLHQILSLPAGEYVPFFTIKGTVVNACKLQAAAYNPTPYWVSGLPGSVGQTGYYTLTYYMRNDGNNNISIWLDSSMSNIIGMKACLPNIKLIIQRLT
notes: 640 residues; residues 1-37, 333-352, 365-371 and 427-455 not traced in the map; In the functional rows pb5 stands on the phage T5 tail tip (T5st0), untagged; also called RBPpb5; source: E. coli BL21(DE3), pET-28 vector, 20 °C without induction, purified; not shown: His tag, C-terminal, kept
As for B1, the binding result is listed as “binds”.

The values are drawn from publication doi:10.1101/2022.09.22.509047, “Deciphering bacteriophage T5 host recognition mechanism and infection trigger” (bioRxiv, 2022).
